From the nanobody polyreactivity screen of Harvey et al. (2022)

Experiment: yeast display, Sf9 membrane polyspecificity reagent, FACS + sequencing; frameworks hold sequencing errors
In short: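 Nanobodies from a synthetic yeast display library (Saccharomyces cerevisiae BJ5465), induced 36–48 hours with galactose, were stained 1 hour at 4 °C with 10% biotinylated, detergent-solubilized Sf9 membrane reagent, enriched on streptavidin microbeads, then FACS-sorted. Anti-HA (expression) and streptavidin (reagent binding) fluorescence set low and high (top ~1%) gates. Polyreactivity labels come from the gate of origin. Genes were colony-PCR amplified, MiSeq 2 × 250 sequenced and filtered by CDR length.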

Sequence	polyreactivity (PSR sort gate)
QVQLVESGGGLVQAGGSLRLSCAASGFTITYYVMGWYRQAPGKERELVAAISSGGRTYYADSVKGRFTISRDNAKNTVYLQMNSLKPEDTAVYYCARAISIYPGFGYWGQGTQVTVSS	high polyreactivity
QVQLVESGGGLVQAGGSLRLSCAASGFIFNRNAMGWYRQAPGKERELVAGINSGGTTKYADSVKGRFTISRDNAKNTVYLQMNSLKPEDTAVYYCNRDWWWDHGRWYRTSRYDYWGQGTQVTVSS	low polyreactivity
QDPHVESGGGIVQAGGSISLRCSASGSTYAKKAMVRYRKAPGKEKELFADISASGGSTYYADSVKGRFTISRDIAKNSVYLQMYSLKPEETSVYYWAKSSYLTRGSRYDYWGQGTQVTLSS	low polyreactivity
QVQLVESGGGLVQAGGSLRLSCAASGGTIGWYAMGWYRQAPGKERELVAAITSSGGTTFYADSVKGRFTISRDNAKNTVYLQMNSLKPEDTAVYYCAKRGKRPTRYKLGKYDYWGQGTQVTVSS	high polyreactivity
QDQLVESGGGLVQAGGSLRLSCAASGSTIWGNAMGWYRQAPGKERELVAAITSTGSTNYADSVKARFTISRDNAKNTVYLQMNSLKPEVTAVYYCATAYYHTYWPTRRYYYWGQGTQVTVSS	high polyreactivity
QVQLVESGGGLVQAGGSLRLSCAASGGTFNGYAMGWYRQAPGKERELVAAITSGGGSTYADSVKGRFTISRDNAKNTVYLQMNSLKTEDTAVYYCNADQWDEWFWDYDYWGQGTQVTVSS	low polyreactivity
QVQLVESGGGLVQAGGSLRLICAASGSIFFVYDMGWYRQAPGKERELVAAITWSGGRTTYADSVKGRFTISRDNAKNTVYLQMNSMKPEDTAVYYCAKAWPDHWYSRYDYWGQGTQVTVSS	low polyreactivity
QVQLVESGGGLVHAGGCLRLSCAASGRNFYYYTMGWSRQEPGKERELVASISRSGDRTYYADSVKGRFTISRDYAKNTVYLQMNSLKPEDTAVYYCNAQKYPRYSRTSGRNYFFWGQGTQVTVSS	high polyreactivity
QVQLVESGGGLVQAGGSLRLSCSSSGLIFRRNAMGWYRQAPGKERELVAVIDRGGRTNYADSVKGRFTISRDNAKNTVYLQMNSLKPEDTAVYYCDKRYASTSGYWGQGTQVTVSS	high polyreactivity
QVQLVESGGGLVQAGGSLRLICAASGRTFKYKAMGWSRQAPGKERELVAVISRGGSTYADSVKGRFTISRDNAKNTVYLQMNSLKAEDTAVYYCAVGRNSRQASERYGWYKYDYWGQGTQVTVSS	high polyreactivity
QVQLVESGGGLVQAGGSHRLSCAASGGTFYYYTMGWYRQAPGKERELVAAISWSGGSTYYADSVKGRFTISRNNEKNTVYLQMKSLKPEDSAVYYCNAVYAGRFGSHYWGQCTQVTVSS	high polyreactivity
QVQLVESGGGLVQAGGSLRLRCASSGSIFYWYAMGWYRQAPGKERELVAAISRSGGSTYYADSVKGRFTISRDNAKNTVYLQMNSLKPEDTAVYYCATELSYRHGYWGQGTQVTVSS	high polyreactivity
QVQLVESGGGLVQAGGSLRLSCAASGSTFHDNAMGWYIQAPGKERELVAAISSGGRTNYADSVKGRFTISRDNAKNTVYLQMNSLKPEDTAVYYCAASFRRWYFYDRHEYGYWGQGTQVTVSS	low polyreactivity
QVKLVESGGGLVKAGGILRLSCAASGRTFRRNAMGWYRQPPGKESELVAAISSSGGSTYYADSVKGRFTISRDNAKNTVYLQMNSLKPEDTAVYYCNAYRYYVYDTYDGHGYWGQGTQVTVSS	high polyreactivity
QVQLVESGGGLVQAGGSLRLICAASGNIFGAYAMGWNIQAPGKERELVAVIRFDDGSTYYADSVKGRFTISRDNAKNTVYLQMNSLKPEDTAVDFCAVRLYLEMDYWGQGTQVTVSA	high polyreactivity
QVQLVESGGGLVQAAGSLRLSCAASGYIFQYYAMGWYRQAPGKERELVAAITGGGSTKYADSVKGRFTISRDNAKNTVYLQMNSLKPEDTAVYYCAASLWYRISKYDYWGQGTQVTVSS	high polyreactivity
QVQLVESGGGLVQAGGSLRLSCAASGIIFDFYAMGWYRPAPGKERELVAAITSSGGSTYYADSVKGRFTISRDNAKNTVYLQMNSLKPEDTAVYYCAAEYTIYGTDQRYNYWGQGTQVTVSS	low polyreactivity
QVQLVESGGGLVQAGGSLRLSCAASGNTFYQYAMGWYRQAPGKERELVAAIDWSGGSTYADSVKGRFTISRDNAKNTVYLQINSLKPEDTAVYYCNASVKPSNVWSRGYDYWGQGTQVTVSS	low polyreactivity
QLQLVESGGGLVQAGGSLRLSCAASGLTFYWYAMGWYRQAPGKERELVAAITSTGSTYYADSVKGRFTISRDNAKNTVYLQMNILKPEDTAVYYCNADFPANWGWDYDYWGQGTQVTVSS	low polyreactivity
QVQLVESGGGLVQAGGSLRLSCAASGIIFGGYAMGWYRQAHGKERELVARITSGGSTNYADSVKGRFTISRDNAKNTVYLQMNSLKPEDTAVYYCNARGGWSWRFYYWGQGTQVTVSS	high polyreactivity
QVHLVESGGGLVQAGGSLRLSCAASGSIFYPYAMGWYRQAPGKERELVAAISGRGGNTYYADSVKGRFTISRDNAKNTVYFQMNSLKPEDTAVYYCAADRYYWSLYGYDYWGQGTQVTVSS	high polyreactivity

Sequence	polyreactivity (PSR sort gate)
QVQLVESGGGLVQAGGSLRLSCAASGLTLDKYAMGWYRPAPRKERELVAGINSRGGSTYADSVKGRFTISRDNAKNTVYLQMNSMKPEDTAVYYCAADGKVQGGYYWGQGTQVTVSS	high polyreactivity
QVQHVESGGGLVQAGGSLRLSCAASGSIFTTYAMGWYRQAPGKERELVAAISSGGGTNYADSVKGRFTISRDNAKHTVYLQMNSLKPEDTAVYYCNKRYYRLQLHNAYGATPRRNYWGQGTQVTVSS	low polyreactivity
QGQLVESGGALVQAGGSLRLSCAASGSTFVRNAMGWYRPAPRKERELVAAISNVGSTYYADSVKGRFTISRDNAKNTVYFQKNSLKPEDTAVYYCTKQLWYHKFNYWGQGTQVTVSS	low polyreactivity
QVQLVESGGGLVQAGGSLRLSCAASGSTFTPNAMGWYRQAPGKERELVAAIRYTGVGTYYADSVKGRFTISRDNAKNTVYLQMNSLKPEDTAVYYCNRVSRYYNYDYWGQGTQVTVSS	high polyreactivity
QVQLVESGGGLVQAGGSLRLSCAASGFTFVRYTMGWYRQAPGKERELVAAITASGDRTYYADSVKGRFTISRDNAKNTVYLQMNSLKPEDTAVYYCAARVWRTVTRSKYGYWGQGTQVTVSS	high polyreactivity
QVQLVESGGGLVQAGGSLRLSCAASGLIFNRYVMGWYRQARGKERELVAAITCSGDSTYYADSVKGRFTISRDNAKNTVYLQMNSLKPVDTAVYYCAAWDYRYTDREGDYWGPGTQVTVSS	high polyreactivity
QVQLVESGGGLVQAGGSLRLSCAASGSIFSAYAMGWYRQAPGKEREIVASITWSGGSTYYADSVKGRFTISRDNAKNTVYLQMNSLKPEDTAVYYCAAVYVTWYNNYEYWGQGTQVTVSS	high polyreactivity
QVQLVESGGGLVQAGGSLRLSCAASGRIFNYYAMGWYRQAPGKEMELVAVITYSAGRTYYADSVKGRFTISRDNAKNTVYLQMNSLKPEDTAVYYCNADGWVSVSKHYYYWGQGTQVTVSS	low polyreactivity
QVQLVESGGGLVQAGGSLRLSCAASGFTFRTYAMGWYRQAPGKEREYVAAINGRSGSTYADSVKGRFTISRDNAKNTVYLQMISLKPEDTAVYYCAARVRRGSTQAQFYYWGQGTQVTVSS	high polyreactivity
QVQLVESGGGLVQAGGSLRLSCAASGLTSDENAMGWYRQAPGKERELVAVISNSGDSTYYADSVKGRFTISRDTAKNTVYLQLNSLKPEDTAVYNCAADGLSKFDYWGQGTQVTVSS	low polyreactivity
QVQLVESGGGLVQAGGSLRLSCAATGFIFTDNVMGWYRQAPGKERELVAAISRRGGSTYYADSVKGRFTISRDNAKNTVYLQMNSLKPEDTAVYYCNVARQSYLLDYWGQGSQVTVSS	high polyreactivity
QVQLVESGGGLVQAGGSLRLSCAASGRIFYYNAKGWYRQAPGKERELVATISRGGSTYYADSVKGRFTISRDNAKNTVDLQMNSLKPEDTAVYYCATRVLYYQSSYDYWGQGTQVTVSS	high polyreactivity
QVQLVESGGGLVQAGGSLRLSCAASGSIFGFNALGWYRQAPGKERELVASITWSGSSTYYADSVKGRFTISRDNAKNTVYLQMNSLKPEDTAVYYCAKEFVHTHFYLWHVFKYGYWGQGTQVTVSS	low polyreactivity
QVQLVESGGGLVQAGGSLRLSCAASGRILYYYVMGWYRQAPGKERELVAAITRGGSTDYADSVKGRFTISLDNAKNTVYLQMNSLKPEDTAVYYCAAVVYLHYSVDYWGQGSQVTVSS	low polyreactivity
QVQLVESGGGLVQAGGSLRLSCAASGSTFDNTMGWYRQEPGKEKEFVATISWRGGSTYYADSVKGRFTISRDNAKNTVYLQMNSLKPEDTAVYYCAAEVDYRVYWNEVDYWGQGTQVNVSS	low polyreactivity
QVQIEESGGGLVQAGGSLRLSCAASGSIFVVYALGWYRPAPGKERELVAGISRNGGRTYYADSVKGRFTISRDNAKITVYLQMNILKPEDTAVYYCNAYRPSRHDYWGQGTQVTVSS	high polyreactivity
QVQLVESGGVLVQAGGSLRLSCAASGRTFYYYAMGWYRQAPGKEREFVAVISGSGANTFYADSVKGRFTISRDNAKNTVYLQMNSLKPEDTAVYYCAARSWEGYGYWGQGTQVTVSS	high polyreactivity
QVQLVESGGGLVQAGGSLRISCAASAITFPRNAMGWYREAPGKERELVAAITSVGSTKYADSVKGRFTFSRDNAKNTVYLQMNSLKPEDTAVYYCATRGASAISNSVRWSYYYWGQGTQVTVSS	low polyreactivity
QVQLVESVGGLVQAGGSLRLSCAASGRTFPYYAKGGYRQAPWKERELVATISSGGITNYADSVKVRFTISRDNAKNTVYLQMNSLKPEDTAVYYCAADRHWSAGLWRYDYWGQGTQVTVSS	high polyreactivity
QVQLVESCGGLVQAGGSLRLSCAASGSTLYYYAMGWYRQAPGKERELVASISWSGGRTYYADSVKGRFTISRDNAKYTVYLQMNSLKPEDTAVYYCNAVPYRGYDYWGQGTQVTVSS	low polyreactivity
